± gives the uncertainty stated by the source.
System: HEK293T
Experiment: plasma membrane surface immunostaining intensity (anti-HA, deep receptor scanning) (arbitrary fluorescence units); higher = higher plasma membrane expression

## MEEAILLNQTSLVTYFRLRGLSVNHKARIAMFSMFLIFYVLTLIGNVLIVITIIYDHRLHTPMYFFLSNLSFIDVCHSTVTVPKMLRDVWSEEKLISFDACVTQMFFLHLFACTEIFLLTVMAYDRYVAICKPLQYMIVMNWKVCVLLAVALWTGGTIHSIALTSLTIKLPYCGPDEIDNFFCDVPQVIKLACIDTHVIEILIVSNSGLISVVCFVVLVVSYAVILVSLRQQISKGKRKALSTCAAHLTVVTLFLGHCIFIYSRPSTSLPEDKVVSVFFTAVTPLLNPIIYTLRNEEMKSALNKLVGRKERKEEK [OR4E1]
GPCR class: A (Olfactory)
  plasma membrane surface immunostaining intensity: 264 ± 95

## MNYPLTLEMDLENLEDLFWELDRLDNYNDTSLVENHLCPATEGPLMASFKAVFVPVAYSLIFLLGVIGNVLVLVILERHRQTRSSTETFLFHLAVADLLLVFILPFAVAEGSVGWVLGTFLCKTVIALHKVNFYCSSLLLACIAVDRYLAIVHAVHAYRHRRLLSIHITCGTIWLVGFLLALPEILFAKVSQGHHNNSLPRCTFSQENQAETHAWFTSRFLYHVAGFLLPMLVMGWCYVGVVHRLRQAQRRPQRQKAVRVAILVTSIFFLCWSPYHIVIFLDTLARLKAVDNTCKLNGSLPVAITMCEFLGLAHCCLNPMLYTFAGVKFRSDLSRLLTKLGCTGPASLCQLFPSWRRSSLSESENATSLTTF [CXCR5]
GPCR class: A
  plasma membrane surface immunostaining intensity: 630 ± 74

## MGSFNTSFEDGFILVGFSDWPQLEPILFVFIFIFYSLTLFGNTIIIALSWLDLRLHTPMYFFLSHLSLLDLCFTTSTVPQLLINLCGVDRTITRGGCVAQLFIYLALGSTECVLLVVMAFDRYAAVCRPLHYMAIMHPHLCQTLAIASWGAGFVNSLIQTGLAMAMPLCGHRLNHFFCEMPVFLKLACADTEGTEAKMFVARVIVVAVPAALILGSYVHIAHAVLRVKSTAGRRKAFGTCGSHLLVVFLFYGSAIYTYLQSIHNYSEREGKFVALFYTIITPILNPLIYTLRNKDVKGALWKVLWRGRDSG [OR2Y1]
GPCR class: A (Olfactory)
  plasma membrane surface immunostaining intensity: 132 ± 17

## METNFSTPLNEYEEVSYESAGYTVLRILPLVVLGVTFVLGVLGNGLVIWVAGFRMTRTVTTICYLNLALADFSFTATLPFLIVSMAMGEKWPFGWFLCKLIHIVVDINLFGSVFLIGFIALDRCICVLHPVWAQNHRTVSLAMKVIVGPWILALVLTLPVFLFLTTVTIPNGDTYCTFNFASWGGTPEERLKVAITMLTARGIIRFVIGFSLPMSIVAICYGLIAAKIHKKGMIKSSRPLRVLTAVVASFFICWFPFQLVALLGTVWLKEMLFYGKYKIIDILVNPTSSLAFFNSCLNPMLYVFVGQDFRERLIHSLPTSLERALSEDSAPTNDTAANSASPPAETELQAM [FPR2]
GPCR class: A
  plasma membrane surface immunostaining intensity: 6515 ± 60

## MANFTPVNGSSGNQSVRLVTSSSHNRYETVEMVFIATVTGSLSLVTVVGNILVMLSIKVNRQLQTVNNYFLFSLACADLIIGAFSMNLYTVYIIKGYWPLGAVVCDLWLALDYVVSNASVMNLLIISFDRYFCVTKPLTYPARRTTKMAGLMIAAAWVLSFVLWAPAILFWQFVVGKRTVPDNQCFIQFLSNPAVTFGTAIAAFYLPVVIMTVLYIHISLASRSRVHKHRPEGPKEKKAKTLAFLKSPLMKQSVKKPPPGEAAREELRNGKLEEAPPPALPPPPRPVADKDTSNESSSGSATQNTKERPATELSTTEATTPAMPAPPLQPRALNPASRWSKIQIVTKQTGNECVTAIEIVPATPAGMRPAANVARKFASIARNQVRKKRQMAARERKVTRTIFAILLAFILTWTPYNVMVLVNTFCQSCIPDTVWSIGYWLCYVNSTINPACYALCNATFKKTFRHLLLCQYRNIGTAR [CHRM4]
GPCR class: A
  plasma membrane surface immunostaining intensity: 952 ± 190

## MAGAPGPLRLALLLLGMVGRAGPRPQGATVSLWETVQKWREYRRQCQRSLTEDPPPATDLFCNRTFDEYACWPDGEPGSFVNVSCPWYLPWASSVPQGHVYRFCTAEGLWLQKDNSSLPWRDLSECEESKRGERSSPEEQLLFLYIIYTVGYALSFSALVIASAILLGFRHLHCTRNYIHLNLFASFILRALSVFIKDAALKWMYSTAAQQHQWDGLLSYQDSLSCRLVFLLMQYCVAANYYWLLVEGVYLYTLLAFSVLSEQWIFRLYVSIGWGVPLLFVVPWGIVKYLYEDEGCWTRNSNMNYWLIIRLPILFAIGVNFLIFVRVICIVVSKLKANLMCKTDIKCRLAKSTLTLIPLLGTHEVIFAFVMDEHARGTLRFIKLFTELSFTSFQGLMVAILYCFVNNEVQLEFRKSWERWRLEHLHIQRDSSMKPLKCPTSSLSSGATAGSSMYTATCQASCS [GLP1R]
GPCR class: B
  plasma membrane surface immunostaining intensity: 560 ± 52
